Source: IntAct's records for PubMed 26922829

molecular target: crp_human CRP (UniProt P02741)
Sequence (P02741 whole entry): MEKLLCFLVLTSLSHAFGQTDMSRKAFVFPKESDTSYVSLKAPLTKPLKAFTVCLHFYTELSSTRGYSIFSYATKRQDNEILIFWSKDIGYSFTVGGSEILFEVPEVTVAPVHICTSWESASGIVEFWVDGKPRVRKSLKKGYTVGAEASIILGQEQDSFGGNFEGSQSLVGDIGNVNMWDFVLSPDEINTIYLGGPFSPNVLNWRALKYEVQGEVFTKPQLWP

| Substance | effect of a mutation on the interaction |
| --- | --- |
| Collectin-12 (Homo sapiens), Q5KU26 K466A;K469A;K472A | with no effect |
| Collectin-12 (Homo sapiens), Q5KU26 R448A;R451A;R454A | decreasing interaction strength |
| Collectin-12 (Homo sapiens), Q5KU26 R448A;R451A;R454A;K466A;K469A;K472A;R496A;K499A;K502A | decreasing interaction strength |
| Collectin-12 (Homo sapiens), Q5KU26 R496A;K499A;K502A | disrupting interaction strength |
